Our source for the stoichiometry N values is PMC5733570.

Experiment [1] deals with TbTrm140 N-terminal deletion mutant (TbTrm140 ΔS2-G17) (T. brucei). As to the kind of experiment: SEC. A general note: SEC sorts molecules by how far they enter the pores of the column.
In experiment [2] the target is TbTrm140 (3-methylcytosine methyltransferase of Trypanosoma brucei), wild type (T. brucei). Nature of the experiment: SEC.

By stoichiometry N is commonly meant the number of molecules, sites or subunits per partner or assembly.

For the substance “TbTrm140 N-terminal deletion mutant (TbTrm140 ΔS2-G17) (enzyme)”, the stoichiometry N in experiment [1] was determined as 2.
Consider “TbTrm140 (3-methylcytosine methyltransferase of Trypanosoma brucei), wild type (enzyme)”, for which the stoichiometry N in experiment [2] was found to be 2.
